Source: PMC12078605
Several values for one entry are separate records, joined by “and”; a condition that tells them apart may be missing. Equal entries are not always repeated.

Target: Shiga toxin 2a B-subunit (StxB2a) (E. coli (endogenous in STEC/EHEC strains TS18/08, LB226692, HUSEC003, HUSEC004, HUSEC008, HUSEC018))
Test: native gel or EMSA

For “Shiga toxin 2a B-subunit (StxB2a) (natural protein)”, the stoichiometry N was 2 and 3 and 5.
